Test results published in patent US20250011413A1 (MCMASTER UNIVERSITY, published 2025).
Changes are numbered by the printed parent chain. Numbers in names are those of the source. Blank lines part the entries; values can stand above or below the binder they belong to.

Tests used:
[1] = target: T1, PF4/heparin complex (human PF4 complexed with heparin) (human, UniProt P02776 32-101); assay: cell-based or functional assay
T1 sequence: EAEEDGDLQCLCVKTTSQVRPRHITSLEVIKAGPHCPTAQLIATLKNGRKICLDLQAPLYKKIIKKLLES

[2] = target: T2, Human PF4 (CXCL4), biotinylated, without heparin (human, UniProt P02776 32-101, biotinylated with EZ-link-Sulfo-NHS-LC-Biotin (sites not given)); assay: BLI (Octet), biotinylated PF4 without heparin on streptavidin sensors, scFv 1 µg/mL, 1:1 model
T2 construct: Immobilised on streptavidin biosensors for BLI; also called PF4 alone; platelet factor 4
T2 sequence: T1 sequence
Description: (§1) The Octet-QK Red 96 (FortéBio, Menlo Park, CA) instrumentation was used to conduct all BLI experiments. A 96-well microtiter plate (black, flat-bottom) was used to hold 200 μL per well of either sample or buffer. Pre-coated streptavidin biosensor tips (FortéBio) were hydrated in phosphate buffered saline (PBS) containing 1% bovine serum albumin (BSA, Sigma-Aldrich) before performing all kinetic assays. Each step was performed at an operating temperature of 23° C. with agitation at 1000 rpm. Streptavidin tips were first equilibrated in PBS+1% BSA to establish a baseline. […] The PF4-coated tips were then dipped into PBS+1% BSA for 13 minutes to re-establish a baseline. Tips were then incubated in an analyte solution containing half-fold dilutions of wildtype scFv (4.0, 2.0, 1.0, 0.5, 0.25 μg/mL in PBS+1% BSA) for 10 minutes to measure association. For mutant scFv association, tips were incubated in an analyte solution containing 200 μL of each mutant and wildtype scFv at a final concentration of 1 μg/mL in PBS+1% BSA. Antibody dissociation steps were performed by dipping sensors in wells containing PBS+1% BSA for 56 minutes. The following negative controls included in these kinetic experiments were also measured: 200 μL of buffer to replace both the antigen and scFv and 200 μL buffer replacing scFv only. Each experiment was performed with PF4 or with PF4/heparin as the immobilized antigen.
(§2) BLI experiments were performed to evaluate binding responses and affinities of wildtype and mutant scFv. Biotinylated PF4 alone or complexed with heparin was immobilized on streptavidin biosensors and used to capture wildtype scFv. Half-fold serial dilutions of wildtype scFv ranging from 0.25 μg/mL to 4 μg/mL were used to determine the optimal concentrations for future experiments PF4 (PF4 FIG. 3; PF4/heparin FIG. 4).

[3] = target: T1, PF4/heparin complex (human PF4 …); assay: competition EIA, scFv 50 µg/mL; competitor HIT-negative sera antibodies, n=10
[4] = target: T1, PF4/heparin complex (human PF4 …); assay: BLI (Octet), biotinylated PF4/heparin on streptavidin sensors, scFv 1 µg/mL, 1:1 model
Description: as §1, §2

[5] = target: T1, PF4/heparin complex (human PF4 …); assay: BLI (Octet), biotinylated PF4/heparin on streptavidin sensors, scFv at 1 µg/mL, 1:1 model, mean ± s.d.
Description: BLI experiments were performed using wildtype scFv, mutant B, mutant C, mutant D, mutant E, and mutant F at 1 μg/mL. Binding was measured against immobilized biotinylated PF4/heparin complexes on streptavidin biosensors. b) Table showing kinetic data of wildtype and mutant scFv, including binding responses and association and dissociation rates. All data was analyzed based on a 1:1 homogenous ligand binding model using Octet®) User Software version 3.1.
as §1
BLI experiments were performed to evaluate binding responses and affinities of wildtype and mutant scFv. Biotinylated PF4 alone or complexed with heparin was immobilized on streptavidin biosensors and used to capture wildtype scFv.

[6] = target: T2, Human PF4 (CXCL4), biotinylated, …; assay: BLI (Octet), biotinylated PF4 without heparin on streptavidin sensors, scFv 1 µg/mL
Description: as §1, §2

[7] = target: T1, PF4/heparin complex (human PF4 …); assay: BLI (Octet), biotinylated PF4/heparin on streptavidin sensors, scFv 1 µg/mL
Description: as §1, §2

[8] = target: T1, PF4/heparin complex (human PF4 …); assay: competition EIA, scFv 50 µg/mL; competitor HIT-negative sera antibodies, n=10; remark: listed apart in the source
Description: Inhibitory PF4/heparin IgG-specific Streptavidin Enzyme Immunoassay (EIA). The binding activity of wildtype and mutant scFv antibodies to PF4/heparin complexes was measured using an inhibitory PF4/heparin IgG-specific EIA with a streptavidin-biotin capture system. Before performing this protocol, 96-well NUNC Maxisorp plates (ThermoFisher) were coated with 10 μg/mL streptavidin for 24 h. Plates were then blocked with 3% bovine serum albumin (BSA) in phosphate buffered saline (PBS) for 2 h at room temperature. Plates were then coated with 1 U/mL biotinylated-heparin for 1 h followed by 30 μg/mL PF4 for 1 h. Increasing concentrations of wildtype or mutant scFv were added and incubated for 1 hr at room temperature. Without removing wildtype or scFv, HIT patient sera in a 1:50 dilution or full-length KKO (2 μg/mL) was then incubated for 1 h at room temperature. After washing, alkaline phosphatase-conjugated anti-human or anti-mouse IgG (Jackson Immuno Research Laboratories, Inc., West Grove, PA) was added at a 1:4000 dilution and incubated for 1 h temperature. For detection, 1 mg/mL p-nitrophenylphosphate (PNPP, Sigma-Aldrich) substrate dissolved in 1 mol/L diethanolamine (DEA) buffer (pH 9.6) was added. The optical density (OD) was measured at 2 min intervals for 30 min at 405 nm (OD₄₀₅ₙₘ) using a BioTek 800 TS plate reader (BioTek Instruments Inc., Winooski, VT) to determine if anti-PF4/heparin antibody binding was inhibited. Results were reported as a decrease in OD (absorbance at 405 nm) from baseline levels.
Sera (n=10) from confirmed HIT-negative patients (EIA-positive/SRA-negative) containing anti-PF4/heparin antibodies were then used in the same EIA with scFv constructs to determine if antibody binding was decreased in this cohort (Table 5).

% inhibition of 14C-serotonin release (SRA), HIT-Positive Patient #1 serum, scFv 50 µg/mL [1]: 97.8% | % inhibition of 14C-serotonin release (SRA), HIT-Positive Patient #2 serum, scFv 50 µg/mL [1]: 21.8% | % inhibition of 14C-serotonin release (SRA), HIT-Positive Patient #3 serum, scFv 50 µg/mL [1]: 50.6% | % inhibition of 14C-serotonin release (SRA), HIT-Positive Patient #4 serum, scFv 50 µg/mL [1]: 50% | % inhibition of 14C-serotonin release (SRA), HIT-Positive Patient #5 serum, scFv 50 µg/mL [1]: 90.3% | Kd [2]: 0.607 nM | mean % inhibition of serum antibody binding [3]: -57% | Kd [4]: 0.292 nM | koff [5]: 1.41e-05 s⁻¹ | kon [5]: 50900 M⁻¹ s⁻¹ | average binding response (wavelength shift) [6]: 0.211 nm | fold increase of binding response against wildtype scFv [6]: 5 fold | average binding response (wavelength shift) [7]: 0.285 nm | fold increase of binding response against wildtype scFv [7]: 5 fold | mean OD405nm of bound serum IgG (+ scFv) [8]: 1.19 OD405nm
B1: Mutant F scFv, scFv(E183V, E186K, G223R) (scFv)
scFv: DIQMIQSQKFMSTSVGDRVTVTCKASQNVGTNVAWYQQKPGQSPNALIYSASYRYSGVPDRFTGSGSGTDFTLTITNVQSEDLADYFCQQYNSYPLTFGTGTKLDLKGGGGSGGGGSGGGGSVQLQQSGAELVKPGASVKLSCKASGYTFTNYFIYWVKQRPGQGLEWIGEINPRNGDTDFNVKFKSRATLTVDKSSSTAYMQLSSLTSEDSAIYYCTRSPYRNNYGFTYWGQGTLVTVSA
notes: VL-linker-VH; histidine-tagged, from E. coli BL21; also called Mut F; not shown: histidine tag from the pADL-22c vector

% inhibition of 14C-serotonin release (SRA), HIT-Positive Patient #1 serum, scFv 50 µg/mL [1]: 42.2% | % inhibition of 14C-serotonin release (SRA), HIT-Positive Patient #1 serum, scFv 75 µg/mL [1]: 94.4% | % inhibition of 14C-serotonin release (SRA), HIT-Positive Patient #2 serum, scFv 50 µg/mL [1]: 12.8% | % inhibition of 14C-serotonin release (SRA), HIT-Positive Patient #2 serum, scFv 75 µg/mL [1]: 16.7% | % inhibition of 14C-serotonin release (SRA), HIT-Positive Patient #3 serum, scFv 50 µg/mL [1]: 10.8% | % inhibition of 14C-serotonin release (SRA), HIT-Positive Patient #3 serum, scFv 75 µg/mL [1]: 36.1% | % inhibition of 14C-serotonin release (SRA), HIT-Positive Patient #4 serum, scFv 50 µg/mL [1]: 20% | % inhibition of 14C-serotonin release (SRA), HIT-Positive Patient #4 serum, scFv 75 µg/mL [1]: 38.9% | % inhibition of 14C-serotonin release (SRA), HIT-Positive Patient #5 serum, scFv 50 µg/mL [1]: 69.4% | % inhibition of 14C-serotonin release (SRA), HIT-Positive Patient #5 serum, scFv 75 µg/mL [1]: 87.5% | Kd [2]: 5.83 nM | fold stronger affinity than wildtype scFv [2]: 1000 fold | mean % inhibition of serum antibody binding [3]: -17.3% | Kd [4]: 3.77 nM | fold stronger affinity than wildtype scFv [4]: 100 fold | koff [5]: 3.47e-05 s⁻¹ | kon [5]: 12900 M⁻¹ s⁻¹ | average binding response (wavelength shift) [6]: 0.145 nm | fold higher binding response than wildtype scFv [6]: ≥ 3 fold | average binding response (wavelength shift) [7]: 0.133 nm | fold higher binding response than wildtype scFv [7]: ≥ 3 fold | mean OD405nm of bound serum IgG (+ scFv) [8]: 1 OD405nm
B2: Mutant D scFv, scFv(Y156H) (scFv)
scFv: B1 scFv with Y156H, V183E, K186E, R223G
notes: VL-linker-VH; histidine-tagged, from E. coli BL21; also called Mut D; not shown: histidine tag from the pADL-22c vector

% inhibition of 14C-serotonin release (SRA), HIT-Positive Patient #1 serum, scFv 50 µg/mL [1]: 14.4% | % inhibition of 14C-serotonin release (SRA), HIT-Positive Patient #1 serum, scFv 75 µg/mL [1]: 25.6% | % inhibition of 14C-serotonin release (SRA), HIT-Positive Patient #2 serum, scFv 50 µg/mL [1]: 9% | % inhibition of 14C-serotonin release (SRA), HIT-Positive Patient #2 serum, scFv 75 µg/mL [1]: 10.3% | % inhibition of 14C-serotonin release (SRA), HIT-Positive Patient #3 serum, scFv 50 µg/mL [1]: 14.5% | % inhibition of 14C-serotonin release (SRA), HIT-Positive Patient #3 serum, scFv 75 µg/mL [1]: 9.6% | % inhibition of 14C-serotonin release (SRA), HIT-Positive Patient #4 serum, scFv 50 µg/mL [1]: 6.7% | % inhibition of 14C-serotonin release (SRA), HIT-Positive Patient #4 serum, scFv 75 µg/mL [1]: 4.4% | % inhibition of 14C-serotonin release (SRA), HIT-Positive Patient #5 serum, scFv 50 µg/mL [1]: 47.2% | % inhibition of 14C-serotonin release (SRA), HIT-Positive Patient #5 serum, scFv 75 µg/mL [1]: 59.7% | Kd [2]: 0.954 nM | fold stronger affinity than wildtype scFv [2]: 10000 fold | mean % inhibition of serum antibody binding [3]: -34% | Kd [4]: 0.275 nM | fold stronger affinity than wildtype scFv [4]: 100 fold | koff [5]: 2.78e-05 s⁻¹ | kon [5]: 79200 M⁻¹ s⁻¹ | average binding response (wavelength shift) [6]: 0.0986 nm | fold higher binding response than wildtype scFv [6]: 2 fold | average binding response (wavelength shift) [7]: 0.0907 nm | mean OD405nm of bound serum IgG (+ scFv) [8]: 1.08 OD405nm
B3: Mutant E scFv, scFv(Y156H, D180G, Q233P) (scFv)
scFv: B1 scFv with Y156H, R175K, D180G, V183E, K186E, R223G, Q233P
notes: VL-linker-VH; histidine-tagged, from E. coli BL21; also called Mut E; not shown: histidine tag from the pADL-22c vector
